The values that follow come from patent US20130266567A1 (published 2013).

In assay [1] the target is T1, Cynomolgus serum albumin (Cynomolgus monkey, UniProt A2V9Z4 25-608).
T1 construct: mature; purified native protein; coupled to CM5 BIAcore chip; also called cyno SA; CSA
Kind of assay: SPR, BIAcore 3000, serum albumin coupled to CM5 chip.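 Also: Cross-reactivity of anti-serum albumin domain antibodies measured against human, cynomolgus monkey, rat and mouse serum albumin, binding kinetics giving Kd.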
Description: (§1) Cross-reactivity of the AlbudAbs™ (ie, anti-serum albumin dAbs) was determined against human, Cynomolgus monkey (cyno), rat and mouse serum albumin using surface plasmon resonance (SPR). In this case, Biacore™ was used. Biacore™ 2000/3000 was used for the supernatant screens and determination of binding kinetic all of dAbs described herein. Biacore™ T100 was used for the determination of cross-reactivity of lead Vk and VH Albudabs to a wider range of species' SAs (12 in total). Protein samples were run on the T100 BIAcore as described for the BIAcore2000/3000 experiments. […] Where appropriate, a kinetic Langmuir 1:1 fitting model was used.

Assay [2] concerns the target T2, Rat serum albumin (rat, UniProt P02770 25-608).
T2 construct: coupled to CM5 BIAcore chip; also called rat SA; RSA
The assay is described as above.
Description: as §1

In assay [3] the target is T3, Mouse serum albumin (mouse, UniProt P07724 25-608).
T3 construct: mature; bought purified protein; coupled to CM5 BIAcore chip; also called mouse SA; MSA
The description is as above.
Description: as §1

The target of assay [4] is T4, Human serum albumin (human, UniProt P02768 25-609).
T4 construct: coupled to CM5 BIAcore chip; also called human SA; HSA
As to the kind of experiment: SPR, BIAcore 3000, serum albumin coupled to CM5 chip; second of two independent measurements on different protein batches.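 Also: Cross-reactivity of anti-serum albumin domain antibodies measured against human, cynomolgus monkey, rat and mouse serum albumin, binding kinetics giving Kd.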

The target in assay [5] is T4, Human serum albumin. Kind of assay: SPR, BIAcore 3000, serum albumin coupled to CM5 chip; first of two independent measurements on different protein batches.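 Also: Cross-reactivity of anti-serum albumin domain antibodies measured against human, cynomolgus monkey, rat and mouse serum albumin, binding kinetics giving Kd.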
Description: as §1
For another assay, the target named is Rabbit serum albumin (rabbit, UniProt P49065 25-608). As to the kind of experiment: SPR, BIAcore T100.
In assay [6] the target is T4, Human serum albumin. As to the kind of experiment: SPR, BIAcore 3000, serum albumin coupled to CM5 chip.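 Also: Cross-reactivity of anti-serum albumin domain antibodies measured against human, cynomolgus monkey, rat and mouse serum albumin, binding kinetics giving Kd.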
Description: as §1
The target of assay [7] is T1, Cynomolgus serum albumin. As to the kind of experiment: SPR, BIAcore T100, equilibrium KD.
Description: as §1
Assay [8] deals with T4, Human serum albumin. Kind of assay: SPR, BIAcore T100, equilibrium KD.
Description: as §1
The target of assay [9] is T2, Rat serum albumin. As to the kind of experiment: SPR, BIAcore T100, equilibrium KD.
Description: as §1
The target of assay [10] is T3, Mouse serum albumin. Kind of assay: SPR, BIAcore T100, equilibrium KD.
Description: as §1
The target in another assay is Dog serum albumin (dog, UniProt P49822 25-608). Kind of assay: SPR, BIAcore T100, equilibrium KD.
For a further assay, the target named is Marmoset serum albumin (marmoset). Kind of assay: SPR, BIAcore T100, equilibrium KD.
The next assay deals with Mini Pig serum albumin (mini pig). As to the kind of experiment: SPR, BIAcore T100, equilibrium KD.
Another assay has as its target Pig serum albumin (pig, UniProt P08835 25-607). As to the kind of experiment: SPR, BIAcore T100, equilibrium KD.
The target of the next assay is Sheep serum albumin (sheep, UniProt P14639 25-607). As to the kind of experiment: SPR, BIAcore T100, equilibrium KD.
The target in the next assay is Ferret serum albumin (ferret). Kind of assay: SPR, BIAcore T100, equilibrium KD.

Changes are numbered by the printed parent chain. Where “and” joins values, the source holds several entries; their conditions need not be identical. Identical values can stand only once.

Description for Dog serum albumin: as §1
Description for Ferret serum albumin: as §1
Description for Marmoset serum albumin: as §1
Description for Mini Pig serum albumin: as §1
Description for Rabbit serum albumin: as §1
Description for Sheep serum albumin: as §1

B1: DOM7r-36-104 (VHH)
VHH: EVQLLESGGGLVQPGGSLRLSCAASGFTFNHYTMGWVRQAPGKGREWVSLIHPSGTVTYYADSVKGRFTISRDNSKNTLYLQMNSLRAEDTAVYYCAKWATRGFDYWGQGTLVTVSS
notes: VH immunoglobulin single variable domain (dAb, AlbudAb), not a camelid VHH; tested with a myc tag; not shown: myc tag
As for B1, the Kd in the assay with Cynomolgus serum albumin [1] was 149 nM and 360 nM; with Rat serum albumin [2], 109 nM and 114 nM; with Mouse serum albumin [3], 184 nM and 313 nM; with Human serum albumin [4] it was 9 nM; in the assay with Human serum albumin [5], 82 nM.

B2: DOM7r-36-107 (VHH)
VHH: B1 VHH with A100E, T101K, R102K, G103Y
notes: as for B1
B2: the binding result with Rabbit serum albumin is “no binding (tested: dilution series from 5 uM down to 39 nM)”. In addition, the Kd is 127 nM with Cynomolgus serum albumin [1]; 83.4 nM and 44.5 nM with Human serum albumin [6]; 97.3 nM and 209 nM in the assay with Rat serum albumin [2]; 466 nM with Mouse serum albumin [3]; 21.4 nM with Cynomolgus serum albumin [7]; 18.3 nM with Human serum albumin [8]. Also, the Kd was 99.2 nM with Rat serum albumin [9]; 143 nM with Mouse serum albumin [10]; 719 nM in the assay with Dog serum albumin; 111 nM with Marmoset serum albumin; 895 nM with Mini Pig serum albumin; 818 nM with Pig serum albumin. Moreover, the dissociation constant (Kd) with Sheep serum albumin was found to be 637 nM; with Ferret serum albumin, 740 nM.
